In article PMC3323732 (Journal of Molecular Biology, 2011):
Positions count from the first letter of the chain named. In names and notes the source's numbering stands.

T1: myocilin C-terminal olfactomedin domain (myoc-OLF), cleaved from MBP, wild type (human, UniProt Q99972 228-504)
T1 sequence (looked up): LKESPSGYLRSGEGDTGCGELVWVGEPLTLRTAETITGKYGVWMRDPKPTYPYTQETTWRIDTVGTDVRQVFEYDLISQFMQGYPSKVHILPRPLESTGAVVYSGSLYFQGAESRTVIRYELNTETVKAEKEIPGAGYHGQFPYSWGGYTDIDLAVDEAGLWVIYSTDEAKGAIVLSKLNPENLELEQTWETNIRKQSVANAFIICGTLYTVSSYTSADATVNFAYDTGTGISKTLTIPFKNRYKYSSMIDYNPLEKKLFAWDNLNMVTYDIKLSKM

B1: myoc-OLF(Y437H), cleaved from MBP (domain or fragment, human, UniProt Q99972 228-504, looked up)
chain: T1 sequence (looked up) with Y210H
B2: MBP-OLF(P370L) (domain or fragment, human, UniProt Q99972 228-504, looked up)
chain: T1 sequence (looked up) with P143L
B3: MBP-OLF(Y437H) (domain or fragment, human, UniProt Q99972 228-504, looked up)
chain: T1 sequence (looked up) with Y210H
B4: MBP-OLF(245-504) (domain or fragment, human, UniProt Q99972 245-504, looked up)
chain: CGELVWVGEPLTLRTAETITGKYGVWMRDPKPTYPYTQETTWRIDTVGTDVRQVFEYDLISQFMQGYPSKVHILPRPLESTGAVVYSGSLYFQGAESRTVIRYELNTETVKAEKEIPGAGYHGQFPYSWGGYTDIDLAVDEAGLWVIYSTDEAKGAIVLSKLNPENLELEQTWETNIRKQSVANAFIICGTLYTVSSYTSADATVNFAYDTGTGISKTLTIPFKNRYKYSSMIDYNPLEKKLFAWDNLNMVTYDIKLSKM
B5: MBP-OLF(245-455) (domain or fragment, human, UniProt Q99972 245-455, looked up)
chain: CGELVWVGEPLTLRTAETITGKYGVWMRDPKPTYPYTQETTWRIDTVGTDVRQVFEYDLISQFMQGYPSKVHILPRPLESTGAVVYSGSLYFQGAESRTVIRYELNTETVKAEKEIPGAGYHGQFPYSWGGYTDIDLAVDEAGLWVIYSTDEAKGAIVLSKLNPENLELEQTWETNIRKQSVANAFIICGTLYTVSSYTSADATVNFAYDT

What was measured:
[1] = target: the molecule itself; experiment: thioflavin T fluorescence of fibril formation
[2] = target: T1, myocilin C-terminal olfactomedin domain …; experiment: seeded fibril formation followed by thioflavin T fluorescence
SEC = target: the molecule itself; experiment: SEC

binding result [2]	Binder	binding result [1]	binding result (SEC)
binds	B1	binds	
	B2		binds
	B3		binds
	B4		binds
	B5		binds
